Measurements taken from IntAct's records for PubMed 31653868.

B1: Protein PIGBOS1 (Homo sapiens), A0A0B4J2F0 (parent)
chain: MFRRLTFAQLLFATVLGIAGGVYIFQPVFEQYAKDQKELKEKMQLVQESEEKKS
partner: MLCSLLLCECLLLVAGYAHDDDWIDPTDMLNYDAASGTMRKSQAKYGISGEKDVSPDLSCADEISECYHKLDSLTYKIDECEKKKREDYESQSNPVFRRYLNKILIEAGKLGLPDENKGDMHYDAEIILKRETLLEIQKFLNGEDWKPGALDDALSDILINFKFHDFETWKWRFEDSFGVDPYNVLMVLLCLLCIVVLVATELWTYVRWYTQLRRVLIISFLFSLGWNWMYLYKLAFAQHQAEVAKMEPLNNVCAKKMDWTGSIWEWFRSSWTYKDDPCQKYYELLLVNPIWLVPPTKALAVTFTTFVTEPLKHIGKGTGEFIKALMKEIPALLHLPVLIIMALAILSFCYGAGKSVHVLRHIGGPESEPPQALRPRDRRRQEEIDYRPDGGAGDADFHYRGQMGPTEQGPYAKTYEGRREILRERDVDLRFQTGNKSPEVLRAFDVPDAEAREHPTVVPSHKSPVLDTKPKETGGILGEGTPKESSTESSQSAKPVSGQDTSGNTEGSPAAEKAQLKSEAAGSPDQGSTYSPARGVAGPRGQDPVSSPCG

Variants of: B1
Conditions: with clcc1_human CLCC1, Q96S66

effect of a mutation on the interaction	Variant
with no effect	S49A;E50A;E51A
with no effect	V46A;Q47A;E48A
with no effect	K37A;E38A;L39A

Further lines, the variant ahead of its results:

Variant	effect of a mutation on the interaction
M43A;Q44A;L45A	with no effect
E30A;Q31A;Y32A	disrupting interaction strength
K40A;E41A;K42A	with no effect
K52A;K53A;S54A	with no effect
K34A;D35A;Q36A	decreasing interaction strength
